Assay in all cases: enzyme inhibition kinetics
Test [1] concerns the target T1, ADAMTS5-5 (human ADAMTS-5, catalytic and disintegrin domain, C-terminal FLAG-tag) (human, UniProt Q9UNA0 262-566).
T1 sequence (looked up): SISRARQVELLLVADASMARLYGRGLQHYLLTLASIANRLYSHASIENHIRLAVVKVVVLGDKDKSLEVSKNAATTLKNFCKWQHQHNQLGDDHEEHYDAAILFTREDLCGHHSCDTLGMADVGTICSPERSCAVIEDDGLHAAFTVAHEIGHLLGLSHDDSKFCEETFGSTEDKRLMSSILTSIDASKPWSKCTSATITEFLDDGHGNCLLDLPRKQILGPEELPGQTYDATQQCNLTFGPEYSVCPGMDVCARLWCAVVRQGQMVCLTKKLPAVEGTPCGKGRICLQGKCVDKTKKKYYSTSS

Test [2] concerns the target T2, ADAMTS5-1 (full-length human ADAMTS-5, C-terminal FLAG-tag) (human, UniProt Q9UNA0 262-930).
T2 sequence (looked up): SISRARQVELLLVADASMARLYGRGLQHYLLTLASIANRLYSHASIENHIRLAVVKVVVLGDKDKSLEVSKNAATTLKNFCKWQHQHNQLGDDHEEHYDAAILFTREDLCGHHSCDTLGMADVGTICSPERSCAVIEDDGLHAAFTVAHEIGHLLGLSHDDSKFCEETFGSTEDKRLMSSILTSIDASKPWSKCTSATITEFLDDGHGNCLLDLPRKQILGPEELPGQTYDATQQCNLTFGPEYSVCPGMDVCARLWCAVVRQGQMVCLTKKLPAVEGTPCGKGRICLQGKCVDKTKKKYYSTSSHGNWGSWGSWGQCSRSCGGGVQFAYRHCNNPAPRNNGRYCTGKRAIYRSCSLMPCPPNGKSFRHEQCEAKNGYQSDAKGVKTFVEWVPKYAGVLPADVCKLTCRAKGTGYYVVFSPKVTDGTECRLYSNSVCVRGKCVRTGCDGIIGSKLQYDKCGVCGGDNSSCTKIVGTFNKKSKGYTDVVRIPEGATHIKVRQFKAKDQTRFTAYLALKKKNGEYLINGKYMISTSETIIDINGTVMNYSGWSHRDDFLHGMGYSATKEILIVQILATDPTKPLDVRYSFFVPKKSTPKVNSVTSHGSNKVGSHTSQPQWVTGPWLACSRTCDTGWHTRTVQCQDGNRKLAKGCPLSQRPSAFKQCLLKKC

For test [3], the target named is T2, ADAMTS5-1 (full-length human ADAMTS-5, …). The source holds these as a separate data set.
The target in test [4] is T3, ADAMTS4-1 (full-length human ADAMTS-4, C-terminal FLAG-tag) (human, UniProt O75173 213-837).
T3 sequence (looked up): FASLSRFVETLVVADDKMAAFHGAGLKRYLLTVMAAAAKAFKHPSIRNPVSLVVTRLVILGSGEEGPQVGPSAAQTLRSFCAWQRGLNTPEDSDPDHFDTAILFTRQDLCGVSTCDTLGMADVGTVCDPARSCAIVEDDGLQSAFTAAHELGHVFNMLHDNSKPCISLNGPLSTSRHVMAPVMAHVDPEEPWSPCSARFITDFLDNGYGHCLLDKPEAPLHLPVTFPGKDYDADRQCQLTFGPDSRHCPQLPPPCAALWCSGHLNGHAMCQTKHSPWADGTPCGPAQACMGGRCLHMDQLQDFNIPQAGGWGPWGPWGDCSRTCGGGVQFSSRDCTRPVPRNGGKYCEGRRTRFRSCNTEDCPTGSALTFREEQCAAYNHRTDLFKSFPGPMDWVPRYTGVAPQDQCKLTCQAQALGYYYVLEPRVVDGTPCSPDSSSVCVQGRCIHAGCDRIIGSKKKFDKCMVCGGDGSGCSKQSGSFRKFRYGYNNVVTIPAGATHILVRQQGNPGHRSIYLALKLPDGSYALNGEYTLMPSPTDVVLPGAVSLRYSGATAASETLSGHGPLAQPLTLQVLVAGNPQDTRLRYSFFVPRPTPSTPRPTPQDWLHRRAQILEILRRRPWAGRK

In test [5] the target is T4, ADAMTS4-4 (human ADAMTS-4 deletion mutant, C-terminal FLAG-tag) (human, UniProt O75173 213-519).
T4 sequence (looked up): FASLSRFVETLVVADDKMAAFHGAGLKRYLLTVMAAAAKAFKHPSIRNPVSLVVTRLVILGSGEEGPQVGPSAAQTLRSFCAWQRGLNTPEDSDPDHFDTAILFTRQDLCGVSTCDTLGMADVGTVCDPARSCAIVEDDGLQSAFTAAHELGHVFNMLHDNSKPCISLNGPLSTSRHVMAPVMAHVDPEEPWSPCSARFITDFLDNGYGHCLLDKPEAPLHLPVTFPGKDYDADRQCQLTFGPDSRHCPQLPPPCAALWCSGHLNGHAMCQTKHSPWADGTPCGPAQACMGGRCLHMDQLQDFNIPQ

Where two headings read alike, the source gives them in different places.

B1: FLAG-tagged glycosylated human TIMP-3 (full-length tissue inhibitor of metalloproteinases 3), expressed in HEK293 (natural protein, UniProt P35625 24-211, looked up)
chain: CTCSPSHPQDAFCNSDIVIRAKVVGKKLVKEGPFGTLVYTIKQMKMYRGFTKMPHVQYIHTEASESLCGLKLEVNKYQYLLTGRVYDGKMYTGLCNFVERWDQLTLSQRKGLNYRYHLGCNCKIKSCYYLPCFVTSKNECLWTDMLSNFGYPGYQSKHYACIRQKGGYCSWYRGWAPPDKSIINATDP
modifications: glycosylated (only the 27 kDa glycosylated form remained after purification; single N-glycosylation site in the C-terminal domain)
Regarding B1, the Ki in test [1] is 1890 pM; in test [2], 700 pM; in test [3] it was 630 pM; in test [4], 390 pM; in test [5], 380 pM.

The term Ki denotes a measure of affinity in units of concentration, obtained from inhibition or displacement. Low readings indicate tighter binding, high ones weaker binding.
